System: MS2 coat protein
Experiment: apparent KD of MS2 coat protein; designed switch direction (-1 OFF switch, 1 ON switch): 1; higher = weaker reporter binding
Summary of the method: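 The apparent KD reported per design is the median over clusters of curve fits to normalised cluster fluorescence. The RNA switches were transcribed on Illumina chips by stalled E. coli RNA polymerase. SNAP-549-labelled MS2 coat protein was titrated from 0.7 or 1.5 nM, doubling up to 3 µM, in Tris-HCl pH 7.5 buffer containing KCl, MgCl2, BSA, DTT, tRNA and Tween-20, with no input, 200 uM small-molecule ligand, or an oligonucleotide input.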

[1] = Eterna round: R95, input ligand: FMN 200 uM
[2] = Eterna round: R95, input ligand: microRNA oligo, concentration not stated
[3] = Eterna round: R95, input ligand: none
[4] = input ligand: microRNA oligo, concentration not stated

Sequence: CUGCUACAUGAGGAUCACCCAUGUUGGAGUAAUGCAGGAUAUGUGAGACCAGAAGAUAAAACAGAAGGGCAAGGAG [JR_SS!_Sub008] (puzzle: Same State 1)
- apparent KD of MS2 coat protein [1]: 18.8 nM
- apparent KD of MS2 coat protein [2]: 20.8 nM
- apparent KD of MS2 coat protein [3]: 24.6 nM

Sequence: GUGCAACCGUGUGAGGAUAUCGGUGGUAAAACAUGAGGAUCACCCAUGUCCGAAGCUCGGAUCUCCGAGAAGGCGCACAGUUGCA [Same State 2 - Mod of Erisin v.2] (puzzle: Same State 2)
- apparent KD of MS2 coat protein [1]: 27.8 nM
- apparent KD of MS2 coat protein [2]: 290 nM
- apparent KD of MS2 coat protein [3]: 470 nM

Sequence: AAUUAAUUAAUACAUGAGGAUCACCCAUGUAAUUAUUAGAUCUAGGAUAUCAGCUCGAUUAGAGCUGAGAAGGAGAUCACAUGU [SSNG3/18-B2] (Eterna round: R96, puzzle: Same State NG 3)
- apparent KD of MS2 coat protein [4]: 13.6 nM

Sequence: GCUCGAUGAAAGUCCUACAUGAGGAUCACCCAUGUACGUGGGCAGGAUAUUUACAUGCAGAGUGUAGAGAAGGGCCCAUCGAGC [SameState NG3 #61] (Eterna round: R96, puzzle: Same State NG 3)
- apparent KD of MS2 coat protein (input ligand: FMN 200 uM): 18.3 nM
- apparent KD of MS2 coat protein [4]: 50.2 nM
- apparent KD of MS2 coat protein (input ligand: none): 76.4 nM

Sequence: UAGAAUCUAUCUCAGGAUAUCAUGUCAAAGACAUGAGGAUCACCCAUGUACCAGGAAACUGGUUAUGAGAAGGGAGAUAGAUUCU [Mat - Same State 2 - Mod - D33] (puzzle: Same State 2)
- apparent KD of MS2 coat protein [1]: 160 nM
- apparent KD of MS2 coat protein [2]: 158 nM
- apparent KD of MS2 coat protein [3]: 281 nM

Sequence: CUCAAACAUGAGGAUCACCCAUGUGUUGUCAUGGGAGGAUAUCUAAGUUCAUUGUAUUCAGGAGAAGGCCUAUGUC [× ×•×ª×• ×ž×“×™× ×” × ×—×ª-08] (puzzle: Same State 1)
- apparent KD of MS2 coat protein [2]: 284 nM

Sequence: UGUUAACAUGAGGAUCACCCAUGUCAAAUGAAUCGAGGAUAUGGGAAGUAAUAAGAUAAACCAGAAGGCGAAGUUG [Altered State 1-16 - Jieux - Same State 1] (puzzle: Same State 1)
- apparent KD of MS2 coat protein [1]: 54.7 nM
- apparent KD of MS2 coat protein [2]: 302 nM
- apparent KD of MS2 coat protein [3]: 229 nM

Sequence: GGAGCCGGCCUAGGAUAUUUCAUAAAAGAACAUGAGGAUCACCCAUGUAGGCCAGAAGGCCUUGGGAAGAAGGAGGUCGGCUCC [Loop Effect - G28] (Eterna round: R96, puzzle: Same State NG 2)
- apparent KD of MS2 coat protein (input ligand: FMN 200 uM): 14.4 nM
- apparent KD of MS2 coat protein [4]: 22.4 nM
- apparent KD of MS2 coat protein (input ligand: none): 31.8 nM

Sequence: AGCCUGAGUCGAGGAUAUUAUGGAUCCUUUAAUACAUGAGGAUCACCCAUGUAAUUAAUUAUACAUGAGAAGGUGACUCAGGCA [SSNG2/11-B1] (Eterna round: R96, puzzle: Same State NG 2)
- apparent KD of MS2 coat protein [4]: 186 nM

Sequence: AGUAUACAUGAGGAUCACCCAUGUCAACGUAGUCGAGGAUAUGGGCAGCCGUGAGGCGUACUAGAAGGCGAAGAGA [Mat - Same State 1 - Mod of JL - D7] (puzzle: Same State 1)
- apparent KD of MS2 coat protein [1]: 48.9 nM
- apparent KD of MS2 coat protein [2]: 135 nM
- apparent KD of MS2 coat protein [3]: 101 nM

Sequence: UGAGCCGGCACUGAGGAUAUUCAUAUUAAAACAUGAGGAUCACCCAUGUAGGCCAGAAGGCCUUGGGAGAAGGCAGGUCGGCUCU [Mat - Same State 2 - Mod of UCT - D60] (puzzle: Same State 2)
- apparent KD of MS2 coat protein [1]: 22.6 nM
- apparent KD of MS2 coat protein [2]: 185 nM
- apparent KD of MS2 coat protein [3]: 334 nM

Sequence: AGUCCAGCCUGAGCUGGACAAGAGCAUGUACAUGAGGAUCACCCAUGUUCAUGUACAAGCUUUUUGCUCGUCUUAAA [Zipper 52 - 2] (puzzle: Sensor for hsa-mir-208a)
- apparent KD of MS2 coat protein [1]: 399 nM
- apparent KD of MS2 coat protein [2]: 12.7 nM
- apparent KD of MS2 coat protein [3]: 565 nM

Sequence: AAGUUACUAUCUCAGGAUAUCAUGUCAAAGACAUGAGGAUCACCCAUGUACCAGGAAACUGGUUAUGAGAAGGGAGAUAGUAACA [Mat - Same State 2 - Mod - D50] (puzzle: Same State 2)
- apparent KD of MS2 coat protein [1]: 143 nM
- apparent KD of MS2 coat protein [2]: 134 nM
- apparent KD of MS2 coat protein [3]: 1400 nM

Sequence: UUGUUUCACGUAGGAUAUCGACCUACAUGAGGAUCACCCAUGUUUUUGAAUAGAUUUUUUUGUUACGAGAAGGACGUUAUGUAU [JR_SSNG2_Sub065] (Eterna round: R96, puzzle: Same State NG 2)
- apparent KD of MS2 coat protein (input ligand: FMN 200 uM): 59.3 nM
- apparent KD of MS2 coat protein [4]: 104 nM
- apparent KD of MS2 coat protein (input ligand: none): 168 nM

Sequence: UUAAAACAUGAGGAUCACCCAUGUCAACAAAGUCGAGGAUAUGGGCAAAUAAAAUAAGAACCAGAAGGCGAAUAAG [salish99_SS1_r3_005] (puzzle: Same State 1)
- apparent KD of MS2 coat protein [1]: 36.9 nM
- apparent KD of MS2 coat protein [2]: 221 nM
- apparent KD of MS2 coat protein [3]: 314 nM

Sequence: GGAAGGAAGUCAGGAUAUGAAUGGAAAGUACAUGAGGAUCACCCAUGUUAUGGAGGAAGGAAACGUUAGAAGGGAUAAGGAAGG [AK SSNG2-V2-1.1] (Eterna round: R96, puzzle: Same State NG 2)
- apparent KD of MS2 coat protein (input ligand: FMN 200 uM): 67.8 nM
- apparent KD of MS2 coat protein [4]: 45.2 nM
- apparent KD of MS2 coat protein (input ligand: none): 63.7 nM

Sequence: AUAAGAAACACAGGAUAUACCGUGCUUAACGCGGUAGAAGGGUGGGACAUGAGGAUCACCCAUGUGGUCCGGGCGCCGGACCGC [Erarlaa] (Eterna round: R96, puzzle: Same State NG 1)
- apparent KD of MS2 coat protein (input ligand: FMN 200 uM): 934 nM
- apparent KD of MS2 coat protein [4]: 296 nM
- apparent KD of MS2 coat protein (input ligand: none): 309 nM

Sequence: AAGAGAGAAAUACAGGAUAUGAGGAGAGGAACAUGAGGAUCACCCAUGUGAGAGAAAGGGAAGAAUCAGAAGGGUAGAGAAGAGA [JR_SS2_Sub002] (puzzle: Same State 2)
- apparent KD of MS2 coat protein [1]: 31.8 nM
- apparent KD of MS2 coat protein [2]: 47 nM
- apparent KD of MS2 coat protein [3]: 73.8 nM

Sequence: UUAUACUAGAGAGGAUAUGCAGAGGAUCACCCUGCAGAAGGCUCGUUAGAGAGGAUAUGCAGAGGAUCACCCUGCAGAAGGCUC [pwkr ssNG DX.23] (Eterna round: R96, puzzle: Same State NG 1)
- apparent KD of MS2 coat protein (input ligand: FMN 200 uM): 17.2 nM
- apparent KD of MS2 coat protein [4]: 8.62 nM
- apparent KD of MS2 coat protein (input ligand: none): 15.2 nM

Sequence: UCAAUCAUGUAAGGAUAUGCAGCCGUUUCGGCUGCAGAAGGUACUAUAAUUACAUGAGGAUCACCCAUGUUAUAAAAUUUAUAU [JL SSNG1 1.26] (Eterna round: R96, puzzle: Same State NG 1)
- apparent KD of MS2 coat protein (input ligand: FMN 200 uM): 33.6 nM
- apparent KD of MS2 coat protein [4]: 101 nM
- apparent KD of MS2 coat protein (input ligand: none): 217 nM

Sequence: GGGCCAGCUUGUGCUGGGCCUUCGCAUGCACAUGAGGAUCACCCAUGUCGUGUACAUGCUUGGUGCUCGUCUUUAAA [Photon Torp-12] (puzzle: Sensor for hsa-mir-208a)
- apparent KD of MS2 coat protein [1]: 399 nM
- apparent KD of MS2 coat protein [2]: 15.7 nM
- apparent KD of MS2 coat protein [3]: 266 nM

Sequence: AAUUUAAUACAUGAGGAUCACCCAUGUAAUACUAGUAAGAUCUAGGAUAUCAGCUCGAAUAGAGCUGAGAAGGAGAUCACAUGU [SSNG3/19-C1] (Eterna round: R96, puzzle: Same State NG 3)
- apparent KD of MS2 coat protein (input ligand: FMN 200 uM): 24.2 nM
- apparent KD of MS2 coat protein [4]: 63.9 nM
- apparent KD of MS2 coat protein (input ligand: none): 82 nM

Sequence: GGUCCAGCCUGAGCUGGACGAAAGUAUGUACAUGAGGAUCACCCAUGUCAUGUAUAAGUUUUUUGUUCGUCUUGAAA [Sensorship 1 - Jieux - Sensor for hsa-mir-208a] (puzzle: Sensor for hsa-mir-208a)
- apparent KD of MS2 coat protein [1]: 26 nM
- apparent KD of MS2 coat protein [2]: 14.2 nM
- apparent KD of MS2 coat protein [3]: 23.1 nM

Sequence: GUAAAACAUGAGGAUCACCCAUGUAAUAUAAUGGGAGGAUAUCUGAUUUAAUUAAAUUUAAGAGAAGGCCUAAAUG [Mat - Same State 1 - Mod of Eli - D56] (puzzle: Same State 1)
- apparent KD of MS2 coat protein [1]: 32.1 nM
- apparent KD of MS2 coat protein [2]: 107 nM
- apparent KD of MS2 coat protein [3]: 123 nM

Sequence: AGCUAGUACCGAGGAUAUACAUACAUGAGGAUCACCCAUGUAUACAUGAAUUAUUGAGACUACAUGUAGAAGGCGGUACUAGCA [JL SSNG2 1.20] (Eterna round: R96, puzzle: Same State NG 2)
- apparent KD of MS2 coat protein (input ligand: FMN 200 uM): 16.6 nM
- apparent KD of MS2 coat protein [4]: 35.7 nM
- apparent KD of MS2 coat protein (input ligand: none): 64.9 nM

Sequence: AACCUACAUGAGGAUCACCCAUGUGUCUAAGGCACAGGAUAUCGACAGGCAAGACACCUGCGAGAAGGGUGACCUA [Diatater] (puzzle: Same State 1)
- apparent KD of MS2 coat protein [1]: 56.2 nM
- apparent KD of MS2 coat protein [2]: 24 nM
- apparent KD of MS2 coat protein [3]: 48.7 nM

Sequence: AGGUAACAUGAGGAUCACCCAUGUACCAAUAAUGCAGGAUAUCGACACGAAAAUACGUGUCGAGAAGGGCAUGAAA [SS1 MT 22] (Eterna round: R96, puzzle: Same State 1)
- apparent KD of MS2 coat protein (input ligand: FMN 200 uM): 10.3 nM
- apparent KD of MS2 coat protein [4]: 9.09 nM
- apparent KD of MS2 coat protein (input ligand: none): 12.5 nM

Sequence: ACUUGCUUUUUGCUCGUAUAUUGUCCGUUACAUGAGGAUCACCCAUGUGUGUAUUGUGUGUUGUUUUUGAUACGUGU [JR_SHM208A_Sub070] (puzzle: Sensor for hsa-mir-208a)
- apparent KD of MS2 coat protein [1]: 56 nM
- apparent KD of MS2 coat protein [2]: 62.8 nM
- apparent KD of MS2 coat protein [3]: 74.2 nM

Sequence: UUCCCAUCGGGAGGAUAUGGUACCUUAUUGGUUCUAGAAGGUCCAACAUGAGGAUCACCCAUGUGGGAGUGGUCUAAUGACCUC [SS NG10LRO04] (Eterna round: R96, puzzle: Same State NG 1)
- apparent KD of MS2 coat protein (input ligand: FMN 200 uM): 247 nM
- apparent KD of MS2 coat protein [4]: 326 nM
- apparent KD of MS2 coat protein (input ligand: none): 311 nM

Sequence: GGUAGGUUACUACCAAACAUGAGGAUCACCCAUGUAAGUGGGAAGGAUAUGGUACCUUUUAGGUACCAGAAGGUCCAUAUAUUU [JL Fiskers NG3ss - 2 mod 8] (Eterna round: R96, puzzle: Same State NG 3)
- apparent KD of MS2 coat protein (input ligand: FMN 200 uM): 231 nM
- apparent KD of MS2 coat protein [4]: 847 nM
- apparent KD of MS2 coat protein (input ligand: none): 1140 nM

Sequence: UGACACACGGCAGGAUAUCGUUAGCAAAGCUAACGAGAAGGGCCUCAUGUCGUGGAAACGUGACAUGAGGAUCACCCAUGUCGC [Omei SS(NG)1 Cv9] (Eterna round: R96, puzzle: Same State NG 1)
- apparent KD of MS2 coat protein (input ligand: FMN 200 uM): 272 nM
- apparent KD of MS2 coat protein [4]: 27.3 nM
- apparent KD of MS2 coat protein (input ligand: none): 58.5 nM

— the supplement of paper PMC9170038
